Measurements: publication PMC8298264, “Function of cofactor Akirin2 in the regulation of gene expression in model human neutrophil-like HL60 cells” (Bioscience Reports, 2021)

System: human HL60 cells
Assay: SWATH-MS proteomics, differential protein representation, akirin2 KO vs WT HL60 cells
Type: cell-based
Details: akirin2 KO vs WT HL60 cells
In short: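 Differential representation compares akirin2 KO with WT HL60 across three biological replicates, 5 µg digest each, acquired by data-independent SWATH on a 120-min gradient. Library built from combined IDA runs searched with Paragon; proteins accepted at 1% FDR, with total-area-sum normalization.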

[1] = SWATH-MS, sheet "Under-represented in KO"
[2] = SWATH-MS, under-represented in KO
[3] = sheet "Under-represented in KO"

B1: sp¦Q6RFH5¦WDR74_HUMAN (protein, UniProt Q6RFH5 1-385, looked up)
WD repeat-containing protein …: MAAAAARWNHVWVGTETGILKGVNLQRKQAANFTAGGQPRREEAVSALCWGTGGETQMLVGCADRTVKHFSTEDGIFQGQRHCPGGEGMFRGLAQADGTLITCVDSGILRVWHDKDKDTSSDPLLELRVGPGVCRMRQDPAHPHVVATGGKENALKIWDLQGSEEPVFRAKNVRNDWLDLRVPIWDQDIQFLPGSQKLVTCTGYHQVRVYDPASPQRRPVLETTYGEYPLTAMTLTPGGNSVIVGNTHGQLAEIDLRQGRLLGCLKGLAGSVRGLQCHPSKPLLASCGLDRVLRIHRIQNPRGLEHKVYLKSQLNCLLLSGRDNWEDEPQEPQEPNKVPLEDTETDELWASLEAAAKRKLSGLEQPQGALQTRRRKKKRPGSTSP
Fold Change [1]: 0.7453
Log (Fold Change) [1]: -0.1277

B2: sp¦Q9NVI7¦ATD3A_HUMAN (protein, UniProt Q9NVI7 2-586, looked up)
ATPase family AAA …: SWLFGINKGPKGEGAGPPPPLPPAQPGAEGGGDRGLGDRPAPKDKWSNFDPTGLERAAKAARELEHSRYAKDALNLAQMQEQTLQLEQQSKLKEYEAAVEQLKSEQIRAQAEERRKTLSEETRQHQARAQYQDKLARQRYEDQLKQQQLLNEENLRKQEESVQKQEAMRRATVEREMELRHKNEMLRVEAEARARAKAERENADIIREQIRLKAAEHRQTVLESIRTAGTLFGEGFRAFVTDWDKVTATVAGLTLLAVGVYSAKNATLVAGRFIEARLGKPSLVRETSRITVLEALRHPIQVSRRLLSRPQDALEGVVLSPSLEARVRDIAIATRNTKKNRSLYRNILMYGPPGTGKTLFAKKLALHSGMDYAIMTGGDVAPMGREGVTAMHKLFDWANTSRRGLLLFVDEADAFLRKRATEKISEDLRATLNAFLYRTGQHSNKFMLVLASNQPEQFDWAINDRINEMVHFDLPGQEERERLVRMYFDKYVLKPATEGKQRLKLAQFDYGRKCSEVARLTEGMSGREIAQLAVSWQATAYASEDGVLTEAMMDTRVQDAVQQHQQKMCWLKAEGPGRGDEPSPS
Fold Change [1]: 0.7506
Log (Fold Change) [1]: -0.1246

B3: sp¦P07954¦FUMH_HUMAN (protein, UniProt P07954 45-510, looked up)
Fumarate hydratase, …: ASQNSFRIEYDTFGELKVPNDKYYGAQTVRSTMNFKIGGVTERMPTPVIKAFGILKRAAAEVNQDYGLDPKIANAIMKAADEVAEGKLNDHFPLVVWQTGSGTQTNMNVNEVISNRAIEMLGGELGSKIPVHPNDHVNKSQSSNDTFPTAMHIAAAIEVHEVLLPGLQKLHDALDAKSKEFAQIIKIGRTHTQDAVPLTLGQEFSGYVQQVKYAMTRIKAAMPRIYELAAGGTAVGTGLNTRIGFAEKVAAKVAALTGLPFVTAPNKFEALAAHDALVELSGAMNTTACSLMKIANDIRFLGSGPRSGLGELILPENEPGSSIMPGKVNPTQCEAMTMVAAQVMGNHVAVTVGGSNGHFELNVFKPMMIKNVLHSARLLGDASVSFTENCVVGIQANTERINKLMNESLMLVTALNPHIGYDKAAKIAKTAHKNGSTLKETAIELGYLTAEQFDEWVKPKDMLGPK
Fold Change [1]: 0.754
Log (Fold Change) [1]: -0.1226

B4: sp¦P18859¦ATP5J_HUMAN (protein, UniProt P18859 33-108, looked up)
ATP synthase peripheral stalk …: NKELDPIQKLFVDKIREYKSKRQTSGGPVDASSEYQQELERELFKLKQMFGNADMNTFPTFKFEDPKFEVIEKPQA
Fold Change [1]: 0.7532
Log (Fold Change) [1]: -0.1231

B5: sp¦Q1KMD3¦HNRL2_HUMAN (protein, UniProt Q1KMD3 1-747, looked up)
Heterogeneous nuclear …: MEVKRLKVTELRSELQRRGLDSRGLKVDLAQRLQEALDAEMLEDEAGGGGAGPGGACKAEPRPVAASGGGPGGDEEEDEEEEEEDEEALLEDEDEEPPPAQALGQAAQPPPEPPEAAAMEAAAEPDASEKPAEATAGSGGVNGGEEQGLGKREEDEPEERSGDETPGSEVPGDKAAEEQGDDQDSEKSKPAGSDGERRGVKRQRDEKDEHGRAYYEFREEAYHSRSKSPLPPEEEAKDEEEDQTLVNLDTYTSDLHFQVSKDRYGGQPLFSEKFPTLWSGARSTYGVTKGKVCFEAKVTQNLPMKEGCTEVSLLRVGWSVDFSRPQLGEDEFSYGFDGRGLKAENGQFEEFGQTFGENDVIGCFANFETEEVELSFSKNGEDLGVAFWISKDSLADRALLPHVLCKNCVVELNFGQKEEPFFPPPEEFVFIHAVPVEERVRTAVPPKTIEECEVILMVGLPGSGKTQWALKYAKENPEKRYNVLGAETVLNQMRMKGLEEPEMDPKSRDLLVQQASQCLSKLVQIASRTKRNFILDQCNVYNSGQRRKLLLFKTFSRKVVVVVPNEEDWKKRLELRKEVEGDDVPESIMLEMKANFSLPEKCDYMDEVTYGELEKEEAQPIVTKYKEEARKLLPPSEKRTNRRNNRNKRNRQNRSRGQGYVGGQRRGYDNRAYGQQYWGQPGNRGGYRNFYDRYRGDYDRFYGRDYEYNRYRDYYRQYNRDWQSYYYHHPQDRDRYYRNYYGYQGYR
Fold Change [2]: 0.7447
Log (Fold Change) [2]: -0.128

B6: sp¦P24752¦THIL_HUMAN (protein, UniProt P24752 34-427, looked up)
Acetyl-CoA acetyltransferase, …: VSKPTLKEVVIVSATRTPIGSFLGSLSLLPATKLGSIAIQGAIEKAGIPKEEVKEAYMGNVLQGGEGQAPTRQAVLGAGLPISTPCTTINKVCASGMKAIMMASQSLMCGHQDVMVAGGMESMSNVPYVMNRGSTPYGGVKLEDLIVKDGLTDVYNKIHMGSCAENTAKKLNIARNEQDAYAINSYTRSKAAWEAGKFGNEVIPVTVTVKGQPDVVVKEDEEYKRVDFSKVPKLKTVFQKENGTVTAANASTLNDGAAALVLMTADAAKRLNVTPLARIVAFADAAVEPIDFPIAPVYAASMVLKDVGLKKEDIAMWEVNEAFSLVVLANIKMLEIDPQKVNINGGAVSLGHPIGMSGARIVGHLTHALKQGEYGLASICNGGGGASAMLIQKL
Fold Change [1]: 0.7481
Log (Fold Change) [1]: -0.126

B7: sp¦Q99986¦VRK1_HUMAN (protein, UniProt Q99986 1-396, looked up)
Serine/threonine-protein …: MPRVKAAQAGRQSSAKRHLAEQFAVGEIITDMAKKEWKVGLPIGQGGFGCIYLADMNSSESVGSDAPCVVKVEPSDNGPLFTELKFYQRAAKPEQIQKWIRTRKLKYLGVPKYWGSGLHDKNGKSYRFMIMDRFGSDLQKIYEANAKRFSRKTVLQLSLRILDILEYIHEHEYVHGDIKASNLLLNYKNPDQVYLVDYGLAYRYCPEGVHKEYKEDPKRCHDGTIEFTSIDAHNGVAPSRRGDLEILGYCMIQWLTGHLPWEDNLKDPKYVRDSKIRYRENIASLMDKCFPEKNKPGEIAKYMETVKLLDYTEKPLYENLRDILLQGLKAIGSKDDGKLDLSVVENGGLKAKTITKKRKKEIEESKEPGVEDTEWSNTQTEEAIQTRSRTRKRVQK
Fold Change [2]: 0.7448
Log (Fold Change) [2]: -0.128

B8: sp¦P00966¦ASSY_HUMAN (protein, UniProt P00966 1-412, looked up)
Argininosuccinate synthase: MSSKGSVVLAYSGGLDTSCILVWLKEQGYDVIAYLANIGQKEDFEEARKKALKLGAKKVFIEDVSREFVEEFIWPAIQSSALYEDRYLLGTSLARPCIARKQVEIAQREGAKYVSHGATGKGNDQVRFELSCYSLAPQIKVIAPWRMPEFYNRFKGRNDLMEYAKQHGIPIPVTPKNPWSMDENLMHISYEAGILENPKNQAPPGLYTKTQDPAKAPNTPDILEIEFKKGVPVKVTNVKDGTTHQTSLELFMYLNEVAGKHGVGRIDIVENRFIGMKSRGIYETPAGTILYHAHLDIEAFTMDREVRKIKQGLGLKFAELVYTGFWHSPECEFVRHCIAKSQERVEGKVQVSVLKGQVYILGRESPLSLYNEELVSMNVQGDYEPTDATGFININSLRLKEYHRLQSKVTAK
Fold Change [3]: 0.3334
Log (Fold Change) [3]: -0.477

B9: sp¦P49916¦DNLI3_HUMAN (protein, UniProt P49916 43-1009, looked up)
DNA ligase 3: LLHGHPLFLRRKPVLSFQGSHLRSRATYLVFLPGLHVGLCSGPCEMAEQRFCVDYAKRGTAGCKKCKEKIVKGVCRIGKVVPNPFSESGGDMKEWYHIKCMFEKLERARATTKKIEDLTELEGWEELEDNEKEQITQHIADLSSKAAGTPKKKAVVQAKLTTTGQVTSPVKGASFVTSTNPRKFSGFSAKPNNSGEAPSSPTPKRSLSSSKCDPRHKDCLLREFRKLCAMVADNPSYNTKTQIIQDFLRKGSAGDGFHGDVYLTVKLLLPGVIKTVYNLNDKQIVKLFSRIFNCNPDDMARDLEQGDVSETIRVFFEQSKSFPPAAKSLLTIQEVDEFLLRLSKLTKEDEQQQALQDIASRCTANDLKCIIRLIKHDLKMNSGAKHVLDALDPNAYEAFKASRNLQDVVERVLHNAQEVEKEPGQRRALSVQASLMTPVQPMLAEACKSVEYAMKKCPNGMFSEIKYDGERVQVHKNGDHFSYFSRSLKPVLPHKVAHFKDYIPQAFPGGHSMILDSEVLLIDNKTGKPLPFGTLGVHKKAAFQDANVCLFVFDCIYFNDVSLMDRPLCERRKFLHDNMVEIPNRIMFSEMKRVTKALDLADMITRVIQEGLEGLVLKDVKGTYEPGKRHWLKVKKDYLNEGAMADTADLVVLGAFYGQGSKGGMMSIFLMGCYDPGSQKWCTVTKCAGGHDDATLARLQNELDMVKISKDPSKIPSWLKVNKIYYPDFIVPDPKKAAVWEITGAEFSKSEAHTADGISIRFPRCTRIRDDKDWKSATNLPQLKELYQLSKEKADFTVVAGDEGSSTTGGSSEENKGPSGSAVSRKAPSKPSASTKKAEGKLSNSNSKDGNMQTAKPSAMKVGEKLATKSSPVKVGEKRKAADETLCQTKVLLDIFTGVRLYLPPSTPDFSRLRRYFVAFDGDLVQEFDMTSATHVLGSRDKNPAAQQVSPEWIWACIRKRRLVAPC
Fold Change [2]: 0.7417
Log (Fold Change) [2]: -0.1297

B10: sp¦P36957¦ODO2_HUMAN (protein, UniProt P36957 68-453, looked up)
Dihydrolipoyllysine-residue …: DDLVTVKTPAFAESVTEGDVRWEKAVGDTVAEDEVVCEIETDKTSVQVPSPANGVIEALLVPDGGKVEGGTPLFTLRKTGAAPAKAKPAEAPAAAAPKAEPTAAAVPPPAAPIPTQMPPVPSPSQPPSGKPVSAVKPTVAPPLAEPGAGKGLRSEHREKMNRMRQRIAQRLKEAQNTCAMLTTFNEIDMSNIQEMRARHKEAFLKKHNLKLGFMSAFVKASAFALQEQPVVNAVIDDTTKEVVYRDYIDISVAVATPRGLVVPVIRNVEAMNFADIERTITELGEKARKNELAIEDMDGGTFTISNGGVFGSLFGTPIINPPQSAILGMHGIFDRPVAIGGKVEVRPMMYVALTYDHRLIDGREAVTFLRKIKAAVEDPRVLLLDL
Fold Change [1]: 0.7478
Log (Fold Change) [1]: -0.1262
